From patent US20150344570A1 (published 2015) come the findings set out here.

What all share (assay): SPR (Biacore), antibody captured on chip, FcgR extracellular domain as analyte
A general note: Surface plasmon resonance follows binding to a sensor surface in real time, without labels.

One test addresses T1, FcgRIa (human, UniProt P12314 16-292).
T1 construct: extracellular domain; also called FcγRIa; FcγRI (CD64); not shown: His tag attached to the C terminus
As to the method: (§1) Specifically, H240-Kn204 resulting from the introduction of L234Y/K290Y/Y296W into H240-Kn033, H240-Hl211 resulting from the introduction of S239D/A330M/K334V into H240-Hl033, H240-Kn205 resulting from the introduction of L234Y/Y296W/S298C into H240-Kn033, and H240-Hl212 resulting from the introduction of S239D/K334V into H240-Hl033 were produced according to the method of Reference Example 1. H240-Kn204/H240-Hl211/L73-k0 and H240-Kn205/H240-Hl212/L73-k0 were prepared according to the method of Reference Example 1, by combining H240-Kn204 as one of the H chains and L73-k0 as the L chains with H240-Hl211 as the other H chain, and by combining H240-Kn205 as one of the H chains and L73-k0 as the L chains with H240-Hl212 as the other H chain, and then expressing them. The binding of the prepared variants to FcgRIa, FcgRIIaR, FcgRIIaH, FcgRIIb, FcgRIIIaF, and FcgRIIIaV was measured according to the method of Reference Example 8.
(§2) Analysis of interaction between objective antibody and the FcγR was carried out using Biacore T100 (GE Healthcare), Biacore T200, Biacore A100, and Biacore 4000. HBS-EP+ (GE Healthcare) was used as the running buffer, and the measurement temperature was set to 25° C. Chips produced by immobilizing the antigen peptide by the amine coupling method to a Series S sensor Chip CM5 (GE Healthcare), chips produced by allowing preliminarily biotinylated antigen peptides to interact with and immobilize onto a Series S Sensor Chip SA (certified) (GE Healthcare), chips produced by immobilizing Protein L (ACTIGEN, BioVision) to Series S Sencor Chip CM5 (GE Healthcare), or chips produced by immobilizing Protein A/G (Thermo Scientific) to Series S Sencor Chip CM5 (GE Healthcare) were used. Antibodies of interest were captured onto these chips, and allowed to interact to each FcγR diluted with running buffer. To regenerate and repeatedly use the chip, the antibodies captured onto the chip were washed off by reacting 10 mM glycine-HCl, pH 1.5.

The next test concerns the target T2, FcgRIIaR (human, UniProt P12318 34-217).
T2 construct: extracellular domain; also called FcγRIIa R; FcgRIIa type R; not shown: His tag attached to the C terminus
T2 sequence (looked up): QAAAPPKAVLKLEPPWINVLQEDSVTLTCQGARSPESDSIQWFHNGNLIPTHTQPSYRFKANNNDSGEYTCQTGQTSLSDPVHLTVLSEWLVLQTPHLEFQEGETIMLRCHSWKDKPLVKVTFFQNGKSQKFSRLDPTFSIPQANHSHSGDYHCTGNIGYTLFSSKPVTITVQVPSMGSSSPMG
On the procedure:
as §1, §2

The target of a further test is T3, FcgRIIaH (human, UniProt P12318 34-217).
T3 construct: extracellular domain; also called FcγRIIa H; FcgRIIa type H; not shown: His tag attached to the C terminus
T3 sequence (looked up): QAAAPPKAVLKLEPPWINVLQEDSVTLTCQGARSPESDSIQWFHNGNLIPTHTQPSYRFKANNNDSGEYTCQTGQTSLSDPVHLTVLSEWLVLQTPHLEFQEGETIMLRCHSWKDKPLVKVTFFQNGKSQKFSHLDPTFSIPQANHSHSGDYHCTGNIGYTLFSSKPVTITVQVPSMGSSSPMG
On the procedure:
as §1, §2

The target of a further test is T4, FcgRIIb (human, UniProt P31994 43-217).
T4 construct: extracellular domain; also called FcγRIIb; 2b; not shown: His tag attached to the C terminus
T4 sequence (looked up): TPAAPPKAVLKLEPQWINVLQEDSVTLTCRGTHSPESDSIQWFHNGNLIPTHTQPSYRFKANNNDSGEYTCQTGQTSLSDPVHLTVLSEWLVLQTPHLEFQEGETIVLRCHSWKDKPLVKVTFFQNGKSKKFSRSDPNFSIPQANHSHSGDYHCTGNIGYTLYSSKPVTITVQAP
As to the method:
as §1, §2

The target of a further test is T5, FcgRIIIaF (human, UniProt P08637 17-208).
T5 construct: extracellular domain; also called FcγRIIIa F; 3aF; not shown: His tag attached to the C terminus
As to the method: as §1, §2

T1 sequence (P12314 16-292): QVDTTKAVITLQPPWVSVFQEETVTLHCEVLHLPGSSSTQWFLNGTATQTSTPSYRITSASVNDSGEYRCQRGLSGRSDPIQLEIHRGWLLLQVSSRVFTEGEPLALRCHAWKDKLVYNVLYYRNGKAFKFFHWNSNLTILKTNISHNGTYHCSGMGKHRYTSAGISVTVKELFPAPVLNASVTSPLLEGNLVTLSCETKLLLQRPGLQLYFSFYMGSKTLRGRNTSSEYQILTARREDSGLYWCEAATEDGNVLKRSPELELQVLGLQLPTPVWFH
T5 sequence (P08637 17-208): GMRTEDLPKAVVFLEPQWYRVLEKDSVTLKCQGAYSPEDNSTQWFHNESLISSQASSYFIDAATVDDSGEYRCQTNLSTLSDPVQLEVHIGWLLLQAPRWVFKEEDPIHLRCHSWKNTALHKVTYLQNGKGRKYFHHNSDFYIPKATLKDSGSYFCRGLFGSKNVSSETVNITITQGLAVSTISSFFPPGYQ

B1: H240-Kn125/H240-Hl076/L73-k0 (antibody, human IgG1, kappa)
heavy 1: QDQLVQSGAEVKKPGASVKVSCKASGFNIKDTYIQWVRQAPGQGLEWMGRIDPLRKQTKYREKFEGRVTITADTSTNTAYMELSSLRSEDTAVYYCVRSGREFDYWGQGTLVTVSSASTKGPSVFPLAPSSKSTSGGTAALGCLVKDYFPEPVTVSWNSGALTSGVHTFPAVLQSSGLYSLSSVVTVPSSSLGTQTYICNVNHKPSNTKVDKKVEPKSCDKTHTCPPCPAPEYQWGPMVFLFPPKPKDTLMISRTPEVTCVVVDVSDEEPEVKFNWYVDGVEVHNAKTKPREEQYNATYRVVSVLTVLHQDWLNGKEYKCKVSNKALPAPIEKTISKAKGQPREPQVCTLPPSRDELTKNQVSLWCLVKGFYPSDIAVEWESNGQPENNYKTTPPVLDSDGSFFLYSKLTVDKSRWQQGNVFSCSVMHEALHNHYTQKSLSLSP
heavy 2: QDQLVQSGAEVKKPGASVKVSCKASGFNIKDTYIQWVRQAPGQGLEWMGRIDPLRKQTKYREKFEGRVTITADTSTNTAYMELSSLRSEDTAVYYCVRSGREFDYWGQGTLVTVSSASTKGPSVFPLAPSSKSTSGGTAALGCLVKDYFPEPVTVSWNSGALTSGVHTFPAVLQSSGLYSLSSVVTVPSSSLGTQTYICNVNHKPSNTKVDKKVEPKSCDKTHTCPPCPAPELLGGPSVFLFPPKPKDTLMISRTPEVTCVVVDVSHEEPEVKFNWYVDGVEVHNAKTKPREEQYNSTYRVVSVLTVLHQDWLNGKEYKCKVSNDALPMPIEETISKAKGQPREPQVYTLPPSRCELTKNQVSLSCAVKGFYPSDIAVEWESNGQPENNYKTTPPVLDSDGSFFLVSKLTVDKSRWQQGNVFSCSVMHEALHNHYTQKSLSLSP
light: DIQMTQSPSSLSASVGDRVTITCRASQDIHKYIAWYQQKPGQAPRLLIQYTSTLQPGVPSRFSGSGSGTDYTFTISSLQPEDIATYYCLQYEQLRTFGGGTKVEIKRTVAAPSVFIFPPSDEQLKSGTASVVCLLNNFYPREAKVQWKVDNALQSGNSQESVTEQDSKDSTYSLSSTLTLSKADYEKHKVYACEVTHQGLSSPVTKSFNRGEC
Turning to B1, the Kd (in general, the concentration at which binding is half-saturated) with FcgRIa was 0.066 nM; in the test with FcgRIIaR, 420 nM; with FcgRIIaH it was 140 nM; with FcgRIIb, 3900 nM; with FcgRIIIaF it was 1.3 nM.
